According to article PMC9352680, “A comprehensive thermodynamic model for RNA binding by the Saccharomyces cerevisiae Pumilio protein PUF4”:

T1: PUF4 RNA-binding domain (Saccharomyces cerevisiae, UniProt P25339 537-888)
T1 sequence: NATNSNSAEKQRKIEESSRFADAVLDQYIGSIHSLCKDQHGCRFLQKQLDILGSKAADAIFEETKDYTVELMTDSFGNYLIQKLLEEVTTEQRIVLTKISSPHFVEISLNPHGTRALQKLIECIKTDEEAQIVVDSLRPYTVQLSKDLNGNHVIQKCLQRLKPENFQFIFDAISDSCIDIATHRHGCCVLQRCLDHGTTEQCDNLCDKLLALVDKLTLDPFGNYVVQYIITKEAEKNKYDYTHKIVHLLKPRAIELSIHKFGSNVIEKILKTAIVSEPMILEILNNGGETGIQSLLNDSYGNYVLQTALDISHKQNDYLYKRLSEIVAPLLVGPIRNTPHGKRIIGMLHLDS


Target: T1, PUF4 RNA-binding domain
Experiment: Mg; RNA-MaP; 20 mM Na-HEPES pH 7.4, 30 mM KOAc, 0.75 mM MgCl2, 0.1% Tween-20, 5% glycerol, 0.1 mg/mL BSA, 2 mM DTT; 25 C; 0.0125-409.6 nM protein
Details: tags: N-His6-TEV cleaved; C-SNAP kept, Cy3B-labelled; label: tethered on chip by stalled RNA polymerase

Binder	Kd [nM]
UCUCUUUAUAUUAUUUUCUCUU (ssRNA) [Ib_S1_P5E.1_K5.1_C5.1_H5.1_[G2A]_A5.1_F5.1_[A10T]_T5.1]	473
UCUCUUUUUAUUAUUUUCUCUU (ssRNA) [Ib_S1_P5E.1_K5.1_C5.1_H5.1_[G2T]_A5.1_F5.1_[A10T]_T5.1]	> 2300
Id_ii_S2_P4E.3_K4.2_C4.2_[C-2G]_H4.2_A4.1_F4.1_T4.2_[G10A]_[T11A] (ssRNA) RNA: UUUGAUUAAUAUGAUAUCGUUCUUUCUGUUAUAUAUUAAAUUCUUUCUCGAUAUCAUAUUAAUCUUU	13.7
Id_ii_S2_P4E.3_K4.2_C4.2_[C-2T]_[T-1G]_H4.2_A4.1_F4.1_T4.2_[G10A]_[T11C] (ssRNA) RNA: UUUGAUUAAUAUGAUAUCGUUCUUUCUUGUAUAUAUUAACUUCUUUCUCGAUAUCAUAUUAAUCUUU	4.44
Id_ii_S2_P4E.3_K4.2_C4.2_[C-2T]_[T-1G]_H4.2_A4.1_F4.1_T4.2_[G10T]_[T11G] (ssRNA) RNA: UUUGAUUAAUAUGAUAUCGUUCUUUCUUGUAUAUAUUAUGUUCUUUCUCGAUAUCAUAUUAAUCUUU	2.66
Id_ii_S2_P4E.3_K4.2_C4.2_[C-2T]_[T-1C]_H4.2_A4.1_F4.1_T4.2_[G10T]_[T11C] (ssRNA) RNA: UUUGAUUAAUAUGAUAUCGUUCUUUCUUCUAUAUAUUAUCUUCUUUCUCGAUAUCAUAUUAAUCUUU	7
Id_ii_S2_P4E.3_K4.2_C4.2_[C-2T]_[T-1C]_H4.2_A4.1_F4.1_T4.2_[G10T]_[T11A] (ssRNA) RNA: UUUGAUUAAUAUGAUAUCGUUCUUUCUUCUAUAUAUUAUAUUCUUUCUCGAUAUCAUAUUAAUCUUU	13.5
Id_ii_S2_P4E.3_K4.2_C4.2_[C-2T]_[T-1C]_H4.2_A4.1_F4.1_T4.2_[G10C]_[T11G] (ssRNA) RNA: UUUGAUUAAUAUGAUAUCGUUCUUUCUUCUAUAUAUUACGUUCUUUCUCGAUAUCAUAUUAAUCUUU	8.91
Id_ii_S2_P4E.3_K4.2_C4.2_[C-2T]_[T-1C]_H4.2_A4.1_F4.1_T4.2_[G10C] (ssRNA) RNA: UUUGAUUAAUAUGAUAUCGUUCUUUCUUCUAUAUAUUACUUUCUUUCUCGAUAUCAUAUUAAUCUUU	6.91
Id_ii_S2_P4E.3_K4.2_C4.2_[C-2T]_[T-1C]_H4.2_A4.1_F4.1_T4.2_[G10A] (ssRNA) RNA: UUUGAUUAAUAUGAUAUCGUUCUUUCUUCUAUAUAUUAAUUUCUUUCUCGAUAUCAUAUUAAUCUUU	8.89
Id_ii_S2_P4E.3_K4.2_C4.2_[C-2T]_[T-1G]_H4.2_A4.1_F4.1_T4.2 (ssRNA) RNA: UUUGAUUAAUAUGAUAUCGUUCUUUCUUGUAUAUAUUAGUUUCUUUCUCGAUAUCAUAUUAAUCUUU	1.86
Id_ii_S2_P4E.3_K4.2_C4.2_[C-2T]_[T-1G]_H4.2_A4.1_F4.1_T4.2_[G10A]_[T11A] (ssRNA) RNA: UUUGAUUAAUAUGAUAUCGUUCUUUCUUGUAUAUAUUAAAUUCUUUCUCGAUAUCAUAUUAAUCUUU	2.31
Id_ii_S2_P4E.3_K4.2_C4.2_[C-2T]_[T-1A]_H4.2_A4.1_F4.1_T4.2_[G10T] (ssRNA) RNA: UUUGAUUAAUAUGAUAUCGUUCUUUCUUAUAUAUAUUAUUUUCUUUCUCGAUAUCAUAUUAAUCUUU	14.9
Id_ii_S2_P4E.3_K4.2_C4.2_[C-2T]_[T-1C]_H4.2_A4.1_F4.1_T4.2_[G10A]_[T11A] (ssRNA) RNA: UUUGAUUAAUAUGAUAUCGUUCUUUCUUCUAUAUAUUAAAUUCUUUCUCGAUAUCAUAUUAAUCUUU	18.5
Id_ii_S2_P4E.3_K4.2_C4.2_[C-2T]_[T-1C]_H4.2_A4.1_F4.1_T4.2_[G10A]_[T11C] (ssRNA) RNA: UUUGAUUAAUAUGAUAUCGUUCUUUCUUCUAUAUAUUAACUUCUUUCUCGAUAUCAUAUUAAUCUUU	8.95
Id_ii_S2_P4E.3_K4.2_C4.2_[C-2T]_[T-1A]_H4.2_A4.1_F4.1_T4.2_[G10C]_[T11A] (ssRNA) RNA: UUUGAUUAAUAUGAUAUCGUUCUUUCUUAUAUAUAUUACAUUCUUUCUCGAUAUCAUAUUAAUCUUU	17.5
Id_ii_S2_P4E.3_K4.2_C4.2_[C-2T]_[T-1A]_H4.2_A4.1_F4.1_T4.2_[G10C]_[T11C] (ssRNA) RNA: UUUGAUUAAUAUGAUAUCGUUCUUUCUUAUAUAUAUUACCUUCUUUCUCGAUAUCAUAUUAAUCUUU	14.9
Id_ii_S2_P4E.3_K4.2_C4.2_[C-2T]_[T-1C]_H4.2_A4.1_F4.1_T4.2_[G10C]_[T11C] (ssRNA) RNA: UUUGAUUAAUAUGAUAUCGUUCUUUCUUCUAUAUAUUACCUUCUUUCUCGAUAUCAUAUUAAUCUUU	8.5
Id_ii_S2_P4E.3_K4.2_C4.2_[C-2T]_[T-1C]_H4.2_A4.1_F4.1_T4.2_[G10C]_[T11A] (ssRNA) RNA: UUUGAUUAAUAUGAUAUCGUUCUUUCUUCUAUAUAUUACAUUCUUUCUCGAUAUCAUAUUAAUCUUU	11.5
